# Measurements reported in paper PMC2581425.
# Where “and” joins values, the source holds several entries; their conditions need not be identical. Equal entries are not always repeated.
# Legend:
# [1] = molecular target: CagY-C2_(C3S/C28S/C41S) (Helicobacter pylori strain Q121B); assay: non-reducing SDS-PAGE; affinity-purified His-tagged protein on 15% SDS-PAGE without reducing agent, beside a reducing gel; multimers held by disulphide linkages
# [2] = molecular target: CagY-C2 (recombinant N-terminal His-tagged CagY repeat 2 motif A fragment) (Helicobacter pylori strain Q121B); assay: SEC; 26/60 Superdex 200, 20 mM Tris (pH 8.0), 200 mM NaCl, 2 mL/min; calibrated with known standards; peaks analysed by SDS-PAGE (not shown)
# [3] = molecular target: CagY-C2 (recombinant N-terminal His-tagged CagY repeat 2 motif A fragment) (Helicobacter pylori strain Q121B); assay: non-reducing SDS-PAGE; affinity-purified His-tagged protein on 15% SDS-PAGE without reducing agent, beside a reducing gel; multimers held by disulphide linkages
Substance,stoichiometry N [1],stoichiometry N [2],stoichiometry N [3]
CagY-C2_(C3S/C28S/C41S) (domain or fragment),2,,
CagY-C2 (recombinant N-terminal His-tagged CagY repeat 2 motif A fragment) (domain or fragment),,2,2 and 3 and 4
